Measured values as given in IntAct's records for PubMed 25910212.

B1: TERF1-interacting nuclear factor 2 (Homo sapiens), Q9BSI4 (parent)
chain: MATPLVAGPAALRFAAAASWQVVRGRCVEHFPRVLEFLRSLRAVAPGLVRYRHHERLCMGLKAKVVVELILQGRPWAQVLKALNHHFPESGPIVRDPKATKQDLRKILEAQETFYQQVKQLSEAPVDLASKLQELEQEYGEPFLAAMEKLLFEYLCQLEKALPTPQAQQLQDVLSWMQPGVSITSSLAWRQYGVDMGWLLPECSVTDSVNLAEPMEQNPPQQQRLALHNPLPKAKPGTHLPQGPSSRTHPEPLAGRHFNLAPLGRRRVQSQWASTRGGHKERPTVMLFPFRNLGSPTQVISKPESKEEHAIYTADLAMGTRAASTGKSKSPCQTLGGRALKENPVDLPATEQKENCLDCYMDPLRLSLLPPRARKPVCPPSLCSSVITIGDLVLDSDEEENGQGEGKESLENYQKTKFDTLIPTLCEYLPPSGHGAIPVSSCDCRDSSRPL
B2: U4/U6 small nuclear ribonucleoprotein Prp3 (Homo sapiens), O43395 (parent)
chain: MALSKRELDELKPWIEKTVKRVLGFSEPTVVTAALNCVGKGMDKKKAADHLKPFLDDSTLRFVDKLFEAVEEGRSSRHSKSSSDRSRKRELKEVFGDDSEISKESSGVKKRRIPRFEEVEEEPEVIPGPPSESPGMLTKLQIKQMMEAATRQIEERKKQLSFISPPTPQPKTPSSSQPERLPIGNTIQPSQAATFMNDAIEKARKAAELQARIQAQLALKPGLIGNANMVGLANLHAMGIAPPKVELKDQTKPTPLILDEQGRTVDATGKEIELTHRMPTLKANIRAVKREQFKQQLKEKPSEDMESNTFFDPRVSIAPSQRQRRTFKFHDKGKFEKIAQRLRTKAQLEKLQAEISQAARKTGIHTSTRLALIAPKKELKEGDIPEIEWWDSYIIPNGFDLTEENPKREDYFGITNLVEHPAQLNPPVDNDTPVTLGVYLTKKEQKKLRRQTRREAQKELQEKVRLGLMPPPEPKVRISNLMRVLGTEAVQDPTKVEAHVRAQMAKRQKAHEEANAARKLTAEQRKVKKIKKLKEDISQGVHISVYRVRNLSNPAKKFKIEANAGQLYLTGVVVLHKDVNVVVVEGGPKAQKKFKRLMLHRIKWDEQTSNTKGDDDEESDEEAVKKTNKCVLVWEGTAKDRSFGEMKFKQCPTENMAREHFKKHGAEHYWDLALSESVLESTD
partner: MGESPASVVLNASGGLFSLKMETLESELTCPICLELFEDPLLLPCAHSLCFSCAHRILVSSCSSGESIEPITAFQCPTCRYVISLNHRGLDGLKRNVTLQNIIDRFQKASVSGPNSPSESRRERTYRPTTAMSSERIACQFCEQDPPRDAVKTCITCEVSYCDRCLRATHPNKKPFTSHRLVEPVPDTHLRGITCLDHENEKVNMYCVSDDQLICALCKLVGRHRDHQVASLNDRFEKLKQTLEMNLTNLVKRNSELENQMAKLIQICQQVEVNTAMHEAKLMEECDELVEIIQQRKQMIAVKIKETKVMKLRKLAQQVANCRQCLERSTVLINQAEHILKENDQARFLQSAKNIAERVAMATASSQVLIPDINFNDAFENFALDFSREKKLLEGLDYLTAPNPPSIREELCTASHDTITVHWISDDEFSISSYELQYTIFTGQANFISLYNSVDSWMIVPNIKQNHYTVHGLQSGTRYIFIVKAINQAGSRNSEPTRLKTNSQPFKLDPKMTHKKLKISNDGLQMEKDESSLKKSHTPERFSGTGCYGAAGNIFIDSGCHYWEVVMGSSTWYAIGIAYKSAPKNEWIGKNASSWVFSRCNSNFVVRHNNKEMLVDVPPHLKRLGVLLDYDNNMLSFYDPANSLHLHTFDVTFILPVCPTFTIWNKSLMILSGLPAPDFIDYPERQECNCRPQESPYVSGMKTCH
B3: Keratin, type II cytoskeletal 2 epidermal (Homo sapiens), P35908 (parent)
chain: MSCQISCKSRGRGGGGGGFRGFSSGSAVVSGGSRRSTSSFSCLSRHGGGGGGFGGGGFGSRSLVGLGGTKSISISVAGGGGGFGAAGGFGGRGGGFGGGSSFGGGSGFSGGGFGGGGFGGGRFGGFGGPGGVGGLGGPGGFGPGGYPGGIHEVSVNQSLLQPLNVKVDPEIQNVKAQEREQIKTLNNKFASFIDKVRFLEQQNQVLQTKWELLQQMNVGTRPINLEPIFQGYIDSLKRYLDGLTAERTSQNSELNNMQDLVEDYKKKYEDEINKRTAAENDFVTLKKDVDNAYMIKVELQSKVDLLNQEIEFLKVLYDAEISQIHQSVTDTNVILSMDNSRNLDLDSIIAEVKAQYEEIAQRSKEEAEALYHSKYEELQVTVGRHGDSLKEIKIEISELNRVIQRLQGEIAHVKKQCKNVQDAIADAEQRGEHALKDARNKLNDLEEALQQAKEDLARLLRDYQELMNVKLALDVEIATYRKLLEGEECRMSGDLSSNVTVSVTSSTISSNVASKAAFGGSGGRGSSSGGGYSSGSSSYGSGGRQSGSRGGSGGGGSISGGGYGSGGGSGGRYGSGGGSKGGSISGGGYGSGGGKHSSGGGSRGGSSSGGGYGSGGGGSSSVKGSSGEAFGSSVTFSFR
partner: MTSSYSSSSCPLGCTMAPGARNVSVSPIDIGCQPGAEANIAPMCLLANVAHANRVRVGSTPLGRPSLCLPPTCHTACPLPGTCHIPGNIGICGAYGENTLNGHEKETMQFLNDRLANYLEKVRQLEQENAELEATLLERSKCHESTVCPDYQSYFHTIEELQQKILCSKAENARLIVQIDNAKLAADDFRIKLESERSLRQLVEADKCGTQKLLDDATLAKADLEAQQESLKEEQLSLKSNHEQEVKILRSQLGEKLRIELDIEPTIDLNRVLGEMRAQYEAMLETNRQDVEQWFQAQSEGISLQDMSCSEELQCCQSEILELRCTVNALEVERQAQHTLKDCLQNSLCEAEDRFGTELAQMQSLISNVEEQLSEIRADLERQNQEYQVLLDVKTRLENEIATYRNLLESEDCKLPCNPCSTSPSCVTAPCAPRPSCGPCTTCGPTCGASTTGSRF

Variants of: B1
Conditions: with acd_human ACD

Row | effect of a mutation on the interaction | Variant
1 | disrupting interaction strength | P236S
2 | with no effect | E281K
3 | with no effect | S245Y
4 | with no effect | G237D

Variants of: B2
Conditions: with MID2, Q9UJV3-2

Row | effect of a mutation on the interaction | Variant
5 | with no effect | A489D
6 | with no effect | T494M
7 | with no effect | P493S

Variants of: B3
Conditions: with krt38_human KRT38, O76015

Row | effect of a mutation on the interaction | Variant
8 | with no effect | L484P
9 | disrupting interaction strength | I477N
10 | with no effect | N186K

Variants of: B3
Conditions: with krt38_human KRT38, O76015
Remark: another data set of the same source

Row | effect of a mutation on the interaction | Variant
11 | with no effect | G219D
